T1: CBRN-PLC-β3 fusion protein (phospholipase C-β3 with CBRN at its N-terminus) (UniProt Q01970 1-1234)
T1 construct: phospholipase C-β3 (PLC-β3); also called N-terminally-tagged PLC-β3; PLC-β3 sensor protein; not shown: CBRN (N-terminal fragment of red click-beetle luciferase, amino acids 1-416), N-terminal, kept
T1 sequence (looked up): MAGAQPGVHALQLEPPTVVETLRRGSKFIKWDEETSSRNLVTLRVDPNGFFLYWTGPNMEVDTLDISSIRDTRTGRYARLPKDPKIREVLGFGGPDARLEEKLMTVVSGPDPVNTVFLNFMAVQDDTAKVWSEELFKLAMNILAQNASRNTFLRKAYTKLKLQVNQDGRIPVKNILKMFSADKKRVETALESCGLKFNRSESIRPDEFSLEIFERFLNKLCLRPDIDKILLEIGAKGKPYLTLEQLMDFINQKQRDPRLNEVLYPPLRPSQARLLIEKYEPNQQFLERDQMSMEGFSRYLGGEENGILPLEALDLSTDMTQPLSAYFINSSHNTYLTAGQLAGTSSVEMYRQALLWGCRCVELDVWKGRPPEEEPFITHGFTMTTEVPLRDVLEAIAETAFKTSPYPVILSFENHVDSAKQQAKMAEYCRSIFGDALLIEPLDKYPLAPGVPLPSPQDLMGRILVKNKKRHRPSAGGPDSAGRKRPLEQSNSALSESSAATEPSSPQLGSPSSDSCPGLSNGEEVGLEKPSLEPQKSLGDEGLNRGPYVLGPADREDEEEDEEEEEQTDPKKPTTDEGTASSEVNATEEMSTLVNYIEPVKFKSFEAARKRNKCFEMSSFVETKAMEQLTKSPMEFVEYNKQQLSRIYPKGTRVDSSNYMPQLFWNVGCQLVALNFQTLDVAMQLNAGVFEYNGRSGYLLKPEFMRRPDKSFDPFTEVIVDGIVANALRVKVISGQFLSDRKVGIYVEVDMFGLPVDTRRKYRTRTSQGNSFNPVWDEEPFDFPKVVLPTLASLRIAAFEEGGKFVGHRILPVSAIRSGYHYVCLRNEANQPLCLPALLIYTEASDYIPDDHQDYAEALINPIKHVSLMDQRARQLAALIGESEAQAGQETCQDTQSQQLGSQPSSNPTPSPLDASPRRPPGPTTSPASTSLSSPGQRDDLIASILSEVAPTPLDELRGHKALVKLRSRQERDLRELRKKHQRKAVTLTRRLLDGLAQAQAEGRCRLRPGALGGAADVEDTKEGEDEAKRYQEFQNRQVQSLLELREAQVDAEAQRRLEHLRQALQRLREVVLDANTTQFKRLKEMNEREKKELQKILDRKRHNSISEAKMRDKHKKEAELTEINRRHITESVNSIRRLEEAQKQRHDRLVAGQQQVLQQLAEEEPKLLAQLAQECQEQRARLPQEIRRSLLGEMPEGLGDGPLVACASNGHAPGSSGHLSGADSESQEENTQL

B1: Gαq(123) fusion protein (CBRC integrated into the Gαq sequence after amino acid 123) (natural protein, UniProt P50148 1-359, looked up)
chain: MTLESIMACCLSEEAKEARRINDEIERQLRRDKRDARRELKLLLLGTGESGKSTFIKQMRIIHGSGYSDEDKRGFTKLVYQNIFTAMQAMIRAMDTLKIPYKYEHNKAHAQLVREVDVEKVSAFENPYVDAIKSLWNDPGIQECYDRRREYQLSDSTKYYLNDLDRVADPAYLPTQQDVLRVRVPTTGIIEYPFDLQSVIFRMVDVGGQRSERRKWIHCFENVTSIMFLVALSEYDQVLVESDNENRMEESKALFRTIITYPWFQNSSVILFLNKKDLLEEKIMYSHLVDYFPEYDGPQRDAQAAREFILKMFVDLNPDSDKIIYSHFTCATDTENIRFVFAAVKDTILQLNLKEYNLV
notes: Gαq (G protein alpha q subunit); also called modified Gαq; Gαq sensor protein
B2: Gαq(97) fusion protein (CBRC integrated into the Gαq sequence after amino acid 97) (natural protein, UniProt P50148 1-359, looked up)
chain: MTLESIMACCLSEEAKEARRINDEIERQLRRDKRDARRELKLLLLGTGESGKSTFIKQMRIIHGSGYSDEDKRGFTKLVYQNIFTAMQAMIRAMDTLKIPYKYEHNKAHAQLVREVDVEKVSAFENPYVDAIKSLWNDPGIQECYDRRREYQLSDSTKYYLNDLDRVADPAYLPTQQDVLRVRVPTTGIIEYPFDLQSVIFRMVDVGGQRSERRKWIHCFENVTSIMFLVALSEYDQVLVESDNENRMEESKALFRTIITYPWFQNSSVILFLNKKDLLEEKIMYSHLVDYFPEYDGPQRDAQAAREFILKMFVDLNPDSDKIIYSHFTCATDTENIRFVFAAVKDTILQLNLKEYNLV
notes: Gαq (G protein alpha q subunit); CBRC inserted after amino acid 97 with flexible Gly/Ser linkers; source: HEK293T, transfected, in cells; not shown: CBRC (C-terminal fragment of red click-beetle luciferase, amino acids 394-542), internal (after residue 97), kept

Molecular target: T1, CBRN-PLC-β3 fusion protein …
Assay: split reporter (BiFC, NanoBiT); split click-beetle luciferase complementation in live HEK293T cells expressing the sensor and a GPCR (hH1R; also hM1,3,5R, hNTS1R); D-luciferin added to the cells, L-15 with 5% FCS, 37 °C; stimulated with agonist (histamine)
Conditions: partners not purified

Binder	S/B ratio (signal-to-background of luminescence)	fold lower S/B ratio than the sensor with Gαq(123)
B1	~5	–
B2	–	~3 fold

Reference: publication PMC6249299, “A split luciferase-based probe for quantitative proximal determination of Gαq signalling in live cells” (Scientific Reports, 2018)
